Experimental data from patent publication US20260234260A1 (EUCURE BEIJING BIOPHARMA, published 2026).
Like-named read-outs stand apart in the source and are kept apart here. Blank lines part the entries; values can stand above or below the binder they belong to.

Columns and labels:
[1] = target: T1, human CD40 expressed on Jurkat-Luc-hCD40 reporter cells (human, UniProt P25942 21-277); assay: cell-based or functional assay
[2] = target: T1, human CD40 expressed on …; assay: cell-based or functional assay; remark: listed apart in the source
[3] = target: T1, human CD40 expressed on …; assay: cell-based or functional assay; remark: listed apart in the source
[4] = target: T1, human CD40 expressed on …; assay: cell-based or functional assay; remark: listed apart in the source
[5] = target: T2, human CD40/TNFRSF5 Protein, His Tag (ACRO Biosystems Cat #CD0-H5228) (human, UniProt P25942 21-193); assay: SPR (Biacore), antibody captured, His-tagged hCD40 in solution
T2 construct: Bought protein; also called hCD40; human CD40 protein; not shown: His tag
T2 sequence (P25942 21-193 limits assumed): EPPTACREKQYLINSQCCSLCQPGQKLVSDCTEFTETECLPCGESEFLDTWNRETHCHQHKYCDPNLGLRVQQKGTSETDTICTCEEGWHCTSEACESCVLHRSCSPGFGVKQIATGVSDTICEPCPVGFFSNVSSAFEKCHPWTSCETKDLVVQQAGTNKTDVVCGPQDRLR

[6] = target: T1, human CD40 expressed on …; assay: cell-based or functional assay; remark: listed apart in the source
[7] = target: T2, human CD40/TNFRSF5 Protein, His Tag …; assay: SPR (Biacore), hCD40
Experimental: The binding affinity to human […] (hCD40) was determined by Biacore systems.

[8] = target: T1, human CD40 expressed on …; assay: cell-based or functional assay; remark: listed apart in the source
[9] = target: T1, human CD40 expressed on …; assay: cell-based or functional assay; remark: listed apart in the source
[10] = target: human PD-1 expressed on cells (Jurkat-Luc-hPD-1, CHO-K1-hPD1, Jurkat-hPD1) (human, UniProt Q15116 25-288); assay: cell-based or functional assay
Sequence of human PD-1 expressed on cells (Jurkat-Luc-hPD-1, CHO-K1-hPD1, Jurkat-hPD1) (Q15116 25-288 limits assumed): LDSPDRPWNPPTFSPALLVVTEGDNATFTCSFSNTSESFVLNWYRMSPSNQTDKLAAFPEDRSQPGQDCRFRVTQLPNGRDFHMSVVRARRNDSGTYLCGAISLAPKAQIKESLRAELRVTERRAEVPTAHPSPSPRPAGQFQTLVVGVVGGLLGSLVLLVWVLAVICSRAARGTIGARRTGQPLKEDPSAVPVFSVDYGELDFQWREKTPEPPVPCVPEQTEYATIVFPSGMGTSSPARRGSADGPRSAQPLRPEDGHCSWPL

[11] = target: T3, human PD-1/PDCD1 protein, His Tag (ACRO Biosystems Cat #PD1-H5221) (human, UniProt Q15116 25-167); assay: SPR (Biacore), antibody captured, His-tagged hPD-1 in solution
T3 construct: Bought protein; also called hPD-1; human PD-1 protein; not shown: His tag
T3 sequence (Q15116 25-167 limits assumed): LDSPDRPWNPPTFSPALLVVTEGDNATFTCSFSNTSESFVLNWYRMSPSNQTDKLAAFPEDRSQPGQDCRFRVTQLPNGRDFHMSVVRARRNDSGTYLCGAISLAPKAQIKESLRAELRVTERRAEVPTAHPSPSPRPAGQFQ

[12] = target: T4, neonatal Fc receptor (FcRn); assay: SPR (Biacore), antibody captured, FcRn as analyte
T4 construct: Analyte in Biacore
Experimental: The binding affinity to neonatal Fc receptor (FcRn) was determined by Biacore® systems.

[13] = target: T1, human CD40 expressed on …; assay: cell-based or functional assay; remark: listed apart in the source
[14] = target: T1, human CD40 expressed on …; assay: cell-based or functional assay; remark: listed apart in the source

T1 sequence (P25942 21-277 limits assumed): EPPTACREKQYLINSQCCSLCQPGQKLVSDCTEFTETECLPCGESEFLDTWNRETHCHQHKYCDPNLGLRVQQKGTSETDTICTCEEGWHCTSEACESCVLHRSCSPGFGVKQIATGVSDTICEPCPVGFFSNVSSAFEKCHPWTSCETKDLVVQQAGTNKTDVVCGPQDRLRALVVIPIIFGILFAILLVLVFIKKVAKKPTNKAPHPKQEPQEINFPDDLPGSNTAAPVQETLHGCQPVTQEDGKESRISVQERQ

B4: Pembrolizumab-APX005M-FVHC-IgG4 (bispecific antibody)
heavy: not shown
light: EIVLTQSPATLSLSPGERATLSCRASKGVSTSGYSYLHWYQQKPGQAPRLLIYLASYLESGVPARFSGSGSGTDFTLTISSLEPEDFAVYYCQHSRDLPLTFGGGTKVEIKRTVAAPSVFIFPPSDEQLKSGTASVVCLLNNFYPREAKVQWKVDNALQSGNSQESVTEQDSKDSTYSLSSTLTLSKADYEKHKVYACEVTHQGLSSPVTKSFNRGEC
EC50 (read off the curve) [9]: ~0.2 µg/mL

B5: anti-PD-1 monoclonal antibody 1A7-H2K3-IgG4 (antibody)
VH: EVQLVESGGGLVQPGGSLRLSCAASGFTFSSYSMSWVRQAPGKRLEWVAHISSGGSSTYYPDTVKGRFTISRDNSKNTLYLQMNSLRAEDTAMYYCTRQFYYGSSFWYFDVWGAGTTVTVSS
light: DNVLTQSPATLSVSPGERATLSCKASQSVDFDGDSYMNWYQQKPGQPPRLLIYAASNLESGIPARFSGSGSGTDFTLTISSVEPEDFATYYCQQSNEDPPTFGGGTKVEIKRTVAAPSVFIFPPSDEQLKSGTASVVCLLNNFYPREAKVQWKVDNALQSGNSQESVTEQDSKDSTYSLSSTLTLSKADYEKHKVYACEVTHQGLSSPVTKSFNRGEC
notes: IgG4; also called PD-1 (1A7-H2K3-IgG4); PD1-1A7-H2K3-IgG4
EC50 Value (ug/ml), luminescence of Jurkat-Luc-hPD-1 effector cells co-cultured with CHO-aAPC-hPD-L1 cells [10]: 5.61 µg/mL
Kd [11]: 8.56 nM
koff [11]: 0.00125 s⁻¹
kon [11]: 146000 M⁻¹ s⁻¹
Kd [12]: 2210 nM

B9: 1A7-selicrelumab-FV3A-IgG4 (bispecific antibody)
heavy: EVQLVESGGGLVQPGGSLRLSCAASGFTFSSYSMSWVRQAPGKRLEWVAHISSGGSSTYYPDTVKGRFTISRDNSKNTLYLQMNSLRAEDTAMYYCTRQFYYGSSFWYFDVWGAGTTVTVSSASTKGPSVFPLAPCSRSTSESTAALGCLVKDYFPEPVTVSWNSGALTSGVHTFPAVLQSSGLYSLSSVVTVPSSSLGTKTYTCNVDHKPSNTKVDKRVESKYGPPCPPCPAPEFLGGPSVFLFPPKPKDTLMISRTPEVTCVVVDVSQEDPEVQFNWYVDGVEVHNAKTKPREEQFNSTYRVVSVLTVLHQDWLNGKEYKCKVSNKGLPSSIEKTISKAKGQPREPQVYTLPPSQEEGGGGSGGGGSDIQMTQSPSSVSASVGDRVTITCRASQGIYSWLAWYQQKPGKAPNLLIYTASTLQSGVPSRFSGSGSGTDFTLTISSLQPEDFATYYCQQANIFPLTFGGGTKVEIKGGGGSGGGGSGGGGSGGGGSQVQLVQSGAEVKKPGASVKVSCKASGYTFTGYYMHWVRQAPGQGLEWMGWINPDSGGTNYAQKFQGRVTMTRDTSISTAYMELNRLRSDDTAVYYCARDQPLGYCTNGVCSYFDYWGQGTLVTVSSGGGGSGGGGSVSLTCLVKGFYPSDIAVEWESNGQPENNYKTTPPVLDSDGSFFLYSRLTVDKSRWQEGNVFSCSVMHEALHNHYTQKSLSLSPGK
light: B5 light
EC50 (read off the curve) [8]: ~0.3 µg/mL

B10: ScFV-HC-IgG4 (bispecific antibody)
heavy: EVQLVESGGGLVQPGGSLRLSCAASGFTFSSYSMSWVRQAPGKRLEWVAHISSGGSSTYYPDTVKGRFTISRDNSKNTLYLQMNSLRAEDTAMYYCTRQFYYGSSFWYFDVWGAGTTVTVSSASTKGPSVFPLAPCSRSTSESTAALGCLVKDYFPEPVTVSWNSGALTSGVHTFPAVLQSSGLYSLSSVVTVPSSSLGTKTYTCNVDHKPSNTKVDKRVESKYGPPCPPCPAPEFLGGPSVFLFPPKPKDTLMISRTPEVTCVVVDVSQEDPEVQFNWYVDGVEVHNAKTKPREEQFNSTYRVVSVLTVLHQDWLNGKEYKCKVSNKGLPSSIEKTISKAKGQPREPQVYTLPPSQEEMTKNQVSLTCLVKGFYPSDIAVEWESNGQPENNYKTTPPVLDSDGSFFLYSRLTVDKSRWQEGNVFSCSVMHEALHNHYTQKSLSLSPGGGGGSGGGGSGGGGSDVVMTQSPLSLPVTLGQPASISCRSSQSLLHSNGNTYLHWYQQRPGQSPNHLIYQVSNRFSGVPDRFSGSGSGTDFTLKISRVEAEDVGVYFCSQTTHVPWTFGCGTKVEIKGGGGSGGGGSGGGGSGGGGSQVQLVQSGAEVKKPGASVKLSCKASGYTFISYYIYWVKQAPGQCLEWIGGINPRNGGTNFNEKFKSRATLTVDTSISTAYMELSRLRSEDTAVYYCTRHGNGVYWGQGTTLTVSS
light: B5 light
notes: Anti-CD40 scFv (6A7-H4K2) joined to the C-terminus of each heavy chain of the anti-PD-1 antibody 1A7-H2K3, IgG4
EC50 Value (ug/ml), luminescence of Jurkat-Luc-hCD40 reporter cells in the presence of CHO-K1-hPD1 basal cells [14]: 0.0108 µg/mL
EC50 Value (ug/ml), luminescence of Jurkat-Luc-hPD-1 effector cells co-cultured with CHO-aAPC-hPD-L1 cells [10]: 4.36 µg/mL
Kd [11]: 8.28 nM
koff [11]: 0.00122 s⁻¹
kon [11]: 148000 M⁻¹ s⁻¹
Kd [5]: 1.3 nM
koff [5]: 0.00034 s⁻¹
kon [5]: 261000 M⁻¹ s⁻¹
EC50 Value (ug/ml), luminescence of Jurkat-Luc-hCD40 reporter cells in the presence of Jurkat-hPD1 basal cells [6]: 0.0079 µg/mL

Further lines, results first:

EC50 (read off the curve), luciferase Rlu, Jurkat-Luc-hCD40 reporter cells with CHO-K1-hFcγRIIB basal cells [1]: ~0.01 µg/mL
EC50 (read off the curve), luciferase Rlu, Jurkat-Luc-hCD40 reporter cells, no basal cells [2]: ~0.3 µg/mL
EC50 (read off the curve), luciferase Rlu, Jurkat-Luc-hCD40 reporter cells with CHO-K1-hFcγRIIB basal cells [3]: ~0.02 µg/mL
EC50 Value (ug/ml), luminescence of Jurkat-Luc-hCD40 reporter cells in the presence of CHO-K1-hFcγRIIB basal cells [4]: 0.0203 µg/mL
Kd [5]: 3.06 nM
koff [5]: 0.000322 s⁻¹
kon [5]: 105000 M⁻¹ s⁻¹
EC50 Value (ug/ml), luminescence of Jurkat-Luc-hCD40 reporter cells in the presence of Jurkat-hPD1 basal cells [6]: 0.0089 µg/mL
Kd [7]: 3.06 nM
koff [7]: 0.000322 s⁻¹
kon [7]: 105000 M⁻¹ s⁻¹
B1: anti-CD40 monoclonal antibody 6A7-H4K2-IgG2 (antibody, V domains shown)
VH: QVQLVQSGAEVKKPGASVKLSCKASGYTFISYYIYWVKQAPGQGLEWIGGINPRNGGTNFNEKFKSRATLTVDTSISTAYMELSRLRSEDTAVYYCTRHGNGVYWGQGTTLTVSS
VL: DVVMTQSPLSLPVTLGQPASISCRSSQSLLHSNGNTYLHWYQQRPGQSPNHLIYQVSNRFSGVPDRFSGSGSGTDFTLKISRVEAEDVGVYFCSQTTHVPWTFGGGTKVEIK
notes: IgG2; also called CD40 (6A7-H4K2-IgG2); C40 (6A7-H4K2-IgG2)

EC50 (read off the curve) [8]: ~0.1 µg/mL
B2: Pembrolizumab-Seli-FVHC-IgG4 (bispecific antibody)
heavy: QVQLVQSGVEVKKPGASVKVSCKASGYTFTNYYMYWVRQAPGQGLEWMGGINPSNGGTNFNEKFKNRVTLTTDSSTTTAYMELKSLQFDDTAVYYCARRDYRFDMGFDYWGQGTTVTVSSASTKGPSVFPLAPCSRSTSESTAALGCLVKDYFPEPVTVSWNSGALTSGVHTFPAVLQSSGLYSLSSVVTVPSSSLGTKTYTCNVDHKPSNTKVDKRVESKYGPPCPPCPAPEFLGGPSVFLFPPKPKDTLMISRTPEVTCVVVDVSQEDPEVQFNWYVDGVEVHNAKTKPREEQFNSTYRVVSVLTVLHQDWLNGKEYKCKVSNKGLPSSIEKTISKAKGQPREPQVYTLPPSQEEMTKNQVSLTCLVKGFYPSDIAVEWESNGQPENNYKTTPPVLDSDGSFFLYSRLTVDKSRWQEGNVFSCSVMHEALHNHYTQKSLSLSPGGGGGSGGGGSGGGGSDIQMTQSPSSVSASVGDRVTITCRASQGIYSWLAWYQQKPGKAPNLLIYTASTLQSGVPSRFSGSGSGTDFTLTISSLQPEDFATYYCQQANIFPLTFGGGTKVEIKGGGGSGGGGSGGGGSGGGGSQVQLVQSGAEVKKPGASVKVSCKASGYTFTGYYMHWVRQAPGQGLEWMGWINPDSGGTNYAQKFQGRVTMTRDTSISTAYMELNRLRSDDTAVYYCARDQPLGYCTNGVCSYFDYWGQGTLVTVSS
light: B4 light

EC50 (read off the curve) [9]: ~0.07 µg/mL
B3: Pembrolizumab-6A7-HC-IgG1-LALA (bispecific antibody)
heavy: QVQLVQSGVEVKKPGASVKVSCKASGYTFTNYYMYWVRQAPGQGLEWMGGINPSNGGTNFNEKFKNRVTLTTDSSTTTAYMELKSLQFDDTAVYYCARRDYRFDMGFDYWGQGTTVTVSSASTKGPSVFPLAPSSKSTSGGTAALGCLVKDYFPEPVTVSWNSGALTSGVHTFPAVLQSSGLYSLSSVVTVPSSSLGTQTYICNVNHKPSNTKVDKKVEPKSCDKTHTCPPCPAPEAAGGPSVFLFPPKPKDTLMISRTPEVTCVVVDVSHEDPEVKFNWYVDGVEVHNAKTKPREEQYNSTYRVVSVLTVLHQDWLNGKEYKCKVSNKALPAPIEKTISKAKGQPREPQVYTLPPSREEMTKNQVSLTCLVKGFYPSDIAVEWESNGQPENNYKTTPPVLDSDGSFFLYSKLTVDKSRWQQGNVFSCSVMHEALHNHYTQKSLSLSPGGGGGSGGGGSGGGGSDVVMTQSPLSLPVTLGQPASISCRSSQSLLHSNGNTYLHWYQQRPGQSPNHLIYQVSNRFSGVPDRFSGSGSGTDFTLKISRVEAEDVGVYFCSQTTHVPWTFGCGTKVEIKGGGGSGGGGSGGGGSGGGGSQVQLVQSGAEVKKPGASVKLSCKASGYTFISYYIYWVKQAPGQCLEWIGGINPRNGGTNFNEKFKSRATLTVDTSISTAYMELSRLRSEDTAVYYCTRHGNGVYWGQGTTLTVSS
light: B4 light

EC50 Value (ug/ml), luminescence of Jurkat-Luc-hCD40 reporter cells in the presence of Jurkat-hPD1 basal cells [6]: 0.0065 µg/mL
B6: ScFV-HC-IgG1-LALA (bispecific antibody)
heavy: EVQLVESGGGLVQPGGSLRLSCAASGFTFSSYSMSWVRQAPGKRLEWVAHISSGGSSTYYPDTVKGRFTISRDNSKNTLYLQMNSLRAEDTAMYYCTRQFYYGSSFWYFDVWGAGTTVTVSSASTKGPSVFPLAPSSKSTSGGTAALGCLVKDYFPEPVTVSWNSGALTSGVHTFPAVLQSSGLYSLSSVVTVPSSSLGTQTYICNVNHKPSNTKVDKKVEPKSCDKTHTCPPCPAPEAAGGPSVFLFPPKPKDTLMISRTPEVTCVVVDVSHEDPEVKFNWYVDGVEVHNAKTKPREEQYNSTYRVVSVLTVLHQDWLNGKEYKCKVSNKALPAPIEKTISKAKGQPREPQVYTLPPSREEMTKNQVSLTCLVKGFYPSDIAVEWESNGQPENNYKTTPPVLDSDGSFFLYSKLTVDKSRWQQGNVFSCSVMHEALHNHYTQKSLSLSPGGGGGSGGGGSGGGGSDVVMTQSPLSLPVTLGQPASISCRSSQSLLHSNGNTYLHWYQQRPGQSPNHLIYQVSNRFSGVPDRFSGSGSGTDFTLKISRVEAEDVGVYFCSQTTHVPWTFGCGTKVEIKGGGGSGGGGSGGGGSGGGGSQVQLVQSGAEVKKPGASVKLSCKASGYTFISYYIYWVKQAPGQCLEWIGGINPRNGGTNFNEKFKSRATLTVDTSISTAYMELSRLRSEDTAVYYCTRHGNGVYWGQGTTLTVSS
light: B5 light

EC50 (read off the curve), luciferase Rlu, Jurkat-Luc-hCD40 reporter cells with CHO-K1-hPD-1 basal cells [13]: ~0.03 µg/mL
Kd [12]: 1680 nM
Kd [7]: 0.419 nM
koff [7]: 0.000255 s⁻¹
kon [7]: 608000 M⁻¹ s⁻¹
B7: PD1-C40-6A7-FV3A (bispecific antibody, human IgG4 S228P, kappa)
heavy: EVQLVESGGGLVQPGGSLRLSCAASGFTFSSYSMSWVRQAPGKRLEWVAHISSGGSSTYYPDTVKGRFTISRDNSKNTLYLQMNSLRAEDTAMYYCTRQFYYGSSFWYFDVWGAGTTVTVSSASTKGPSVFPLAPCSRSTSESTAALGCLVKDYFPEPVTVSWNSGALTSGVHTFPAVLQSSGLYSLSSVVTVPSSSLGTKTYTCNVDHKPSNTKVDKRVESKYGPPCPPCPAPEFLGGPSVFLFPPKPKDTLMISRTPEVTCVVVDVSQEDPEVQFNWYVDGVEVHNAKTKPREEQFNSTYRVVSVLTVLHQDWLNGKEYKCKVSNKGLPSSIEKTISKAKGQPREPQVYTLPPSQEEGGGGSGGGGSDVVMTQSPLSLPVTLGQPASISCRSSQSLLHSNGNTYLHWYQQRPGQSPNHLIYQVSNRFSGVPDRFSGSGSGTDFTLKISRVEAEDVGVYFCSQTTHVPWTFGCGTKVEIKGGGGSGGGGSGGGGSGGGGSQVQLVQSGAEVKKPGASVKLSCKASGYTFISYYIYWVKQAPGQCLEWIGGINPRNGGTNFNEKFKSRATLTVDTSISTAYMELSRLRSEDTAVYYCTRHGNGVYWGQGTTLTVSSGGGGSGGGGSVSLTCLVKGFYPSDIAVEWESNGQPENNYKTTPPVLDSDGSFFLYSRLTVDKSRWQEGNVFSCSVMHEALHNHYTQKSLSLSPGK
light: B5 light
notes: Anti-CD40 scFv (6A7) fused into each heavy chain CH3 domain at positions 358-362 (EU numbering) of the anti-PD-1 antibody 1A7-H2K3-IgG4

EC50 Value (ug/ml), luminescence of Jurkat-Luc-hCD40 reporter cells in the presence of CHO-K1-hPD1 basal cells [14]: 0.0103 µg/mL
EC50 Value (ug/ml), luminescence of Jurkat-Luc-hPD-1 effector cells co-cultured with CHO-aAPC-hPD-L1 cells [10]: 23.4 µg/mL
Kd [11]: 9.78 nM
koff [11]: 0.00117 s⁻¹
kon [11]: 120000 M⁻¹ s⁻¹
EC50 (read off the curve), luciferase Rlu, Jurkat-Luc-hCD40 reporter cells with CHO-K1-hFcγRIIB basal cells [3]: ~0.05 µg/mL
EC50 Value (ug/ml), luminescence of Jurkat-Luc-hCD40 reporter cells in the presence of CHO-K1-hFcγRIIB basal cells [4]: 0.0543 µg/mL
EC50 (read off the curve), luciferase Rlu, Jurkat-Luc-hCD40 reporter cells with CHO-K1-hPD-1 basal cells [13]: ~0.04 µg/mL
Kd [5]: 1.75 nM
koff [5]: 0.0005 s⁻¹
kon [5]: 285000 M⁻¹ s⁻¹
B8: Fab-ScFV-IgG4 (bispecific antibody)
heavy: EVQLVESGGGLVQPGGSLRLSCAASGFTFSSYSMSWVRQAPGKRLEWVAHISSGGSSTYYPDTVKGRFTISRDNSKNTLYLQMNSLRAEDTAMYYCTRQFYYGSSFWYFDVWGAGTTVTVSSASTKGPSVFPLAPCSRSTSESTAALGCLVKDYFPEPVTVSWNSGALTSGVHTFPAVLQSSGLYSLSSVVTVPSSSLGTKTYTCNVDHKPSNTKVDKRVESKYGPPCPPCPAPEFLGGPSVFLFPPKPKDTLMISRTPEVTCVVVDVSQEDPEVQFNWYVDGVEVHNAKTKPREEQFNSTYRVVSVLTVLHQDWLNGKEYKCKVSNKGLPSSIEKTISKAKGQPREPQVYTLPPCQEEMTKNQVSLWCLVKGFYPSDIAVEWESNGQPENNYKTTPPVLDSDGSFFLYSRLTVDKSRWQEGNVFSCSVMHEALHNHYTQKSLSLSLGK
light: B5 light
chain: QVQLVQSGAEVKKPGASVKLSCKASGYTFISYYIYWVKQAPGQCLEWIGGINPRNGGTNFNEKFKSRATLTVDTSISTAYMELSRLRSEDTAVYYCTRHGNGVYWGQGTTLTVSSASTGGGGSGGGGSGGGGSGGGGSDVVMTQSPLSLPVTLGQPASISCRSSQSLLHSNGNTYLHWYQQRPGQSPNHLIYQVSNRFSGVPDRFSGSGSGTDFTLKISRVEAEDVGVYFCSQTTHVPWTFGCGTKVEIKDKRVESKYGPPCPPCPAPEFLGGPSVFLFPPKPKDTLMISRTPEVTCVVVDVSQEDPEVQFNWYVDGVEVHNAKTKPREEQFNSTYRVVSVLTVLHQDWLNGKEYKCKVSNKGLPSSIEKTISKAKGQPREPQVCTLPPSQEEMTKNQVSLSCAVKGFYPSDIAVEWESNGQPENNYKTTPPVLDSDGSFFLVSRLTVDKSRWQEGNVFSCSVMHEALHNHYTQKSLSLSLGK
notes: Anti-PD-1 arm (1A7-H2K3 heavy and light chain, IgG4 with KIH) and anti-CD40 arm (6A7-H4K2 scFv joined to IgG4 CH2-CH3 with KIH)
